Assay results as given in article PMC8307315.

Experiments:
Experiment in all cases: SPR; Biacore 2000, CM4 chip; PSA amine-coupled, antibody or conjugate bound to it; 10 min into the dissociation phase 40 nM FcRn in 10 mM maleic acid (pH 6.0) flown over for 3 min; number of FcRn bound per antibody from the RUs at the end of the FcRn injection
[1] = target: hu5A10-DOTA, 12:1 chelator-to-antibody molar ratio
[2] = target: hu5A10-DOTA, 3:1 chelator-to-antibody molar ratio
[3] = target: hu5A10-DOTA, 6:1 chelator-to-antibody molar ratio
[4] = target: hu5A10-DTPA, 12:1 chelator-to-antibody molar ratio
[5] = target: hu5A10-DTPA, 3:1 chelator-to-antibody molar ratio
[6] = target: hu5A10-DTPA, 6:1 chelator-to-antibody molar ratio
[7] = target: humanized 5A10 (hu5A10), unconjugated

Substance: neonatal fc-receptor (FcRn) (from UniProt P55899 24-297)
- FcRn bound per antibody (FcRn per antibody) [1]: 0.1
- FcRn bound per antibody (FcRn per antibody) [2]: 0.8
- FcRn bound per antibody (FcRn per antibody) [3]: 0.5
- FcRn bound per antibody (FcRn per antibody) [4]: 1.7
- FcRn bound per antibody (FcRn per antibody) [5]: 1.9
- FcRn bound per antibody (FcRn per antibody) [6]: 1.9
- FcRn bound per antibody (FcRn per antibody) [7]: 1.8
